Measurements reported in patent US20110091971A1, “Differentiation of Pluripotent Stem Cells” (priority 2008, published 2011).

How the values were obtained:
[1] = system: Human Embryonic Stem Cells (H1 hESC line); experiment: RT-PCR of PDX1 and CDX2 at conclusion of third step of differentiation (Example 12); format: cell-based; details: end of third step; peptide given during first step
Text: At the conclusion of the first step of the differentiation protocol, replicate sets of parallel wells for each treatment group were subjected to further step-wise differentiation. It is important to note that after the first three days, all wells undergoing continuing culture and differentiation received the same treatment. The protocol for this continuing differentiation is described below. […]
RT-PCR Analysis: RNA samples were purified by binding to a silica-gel membrane (Rneasy Mini Kit, Qiagen, CA) in the presence of an ethanol-containing, high-salt buffer followed by washing to remove contaminants. […] Yield and purity were assessed by A260 and A280 readings on a spectrophotometer. […]
Unless otherwise stated, all reagents were purchased from Applied Biosystems. […] For each primer/probe set, a Ct value was determined as the cycle number at which the fluorescence intensity reached a specific value in the middle of the exponential region of amplification. Relative gene expression levels were calculated using the comparative Ct method. […] The normalized amount of target was calculated as 2-ΔCt, assuming amplification to be 100% efficiency. […]

[2] = system: Human Embryonic Stem Cells (H1 hESC line); experiment: High content analysis of cell number, PDX1 and CDX2 protein expression at conclusion of third step of differentiation (Example 12); format: cell-based; details: end of third step; peptide given during first step; compared with commercial activin A or ACTN1
Method: At the conclusion of the first step of the differentiation protocol, replicate sets of parallel wells for each treatment group were subjected to further step-wise differentiation. It is important to note that after the first three days, all wells undergoing continuing culture and differentiation received the same treatment. The protocol for this continuing differentiation is described below.
During the second step of differentiation, cultures were grown for two days in DMEM:F12 medium (Invitrogen; Cat #11330-032) supplemented with 2% Albumin Bovine Fraction V, Fatty Acid Free (FAF BSA) (MP Biomedicals, Inc; Cat #152401), 50 ng/ml FGF7 (PeproTech; Cat #100-19), and 250 nM cyclopamine (Calbiochem; Cat #239804). Medium in each well was aspirated and replaced with a fresh aliquot (0.5 ml) on both days.
Step 3 of the differentiation protocol was carried out over four days. Cells were fed daily by aspirating medium from each well and replacing with a fresh aliquot (0.5 ml) of DMEM-high glucose (Invitrogen; Cat #10569) supplemented with 1% B27 (Invitrogen; Cat #17504-044), 50 ng/ml FGF7, 100 ng/ml Noggin (R&D Systems; Cat #3344-NG), 250 nM KAAD-cyclopamine (Calbiochem; Cat #239804), and 2 μM all-trans retinoic acid (RA) (Sigma-Aldrich; Cat #R2625). At the conclusion of the third step of differentiation, cells from some wells were harvested for analysis by RT-PCR to measure markers of differentiation. Other culture wells were subjected to high content image analysis for protein expression levels of PDX1, a transcription factor correlated with pancreatic endoderm differentiation, and CDX2, a transcription factor associated with intestinal endoderm.
High Content Analysis: At the conclusion of three days of culture, assay plates were washed once with PBS (Invitrogen; Cat #14190), fixed with 4% paraformaldehyde (Alexis Biochemical; Cat #ALX-350-011) at room temperature for 20 minutes, then washed three times with PBS and permeabilized with 0.5% Triton X-100 (Sigma; Cat #T8760-2) for 20 minutes at room temperature. Cells were washed again three times with PBS and blocked with 4% chicken serum (Invitrogen; Cat #16110082) in PBS for 30 minutes at room temperature. Primary antibody (goat anti-human SOX17; R&D Systems; Cat #AF1924) was diluted 1:100 in 4% chicken serum and added to each well for two hours at room temperature. […]
Imaging was performed using an IN Cell Analyzer 1000 (GE Healthcare) utilizing the 51008bs dichroic for cells stained with Hoechst 33342 and Alexa Fluor 488. […] Segmentation for the nuclei was determined based on gray-scale levels (baseline range 100-300) and nuclear size. Averages and standard deviations were calculated for each replicate data set. […]

Molecule | RT-PCR results for PDX1 and CDX2 [1] | cell numbers [2] | protein expression of PDX1 and CDX2 [2]
ACTN4: activin A variant peptide, SEQ ID 5 (protein) GLECDGKVNLCCKKQLFVSFKDIGWNDWIIAPSGYHANHCSGLCPSHIAGTSGSSLSFHSTVINHYRMRGHSPFSDMGACCVPTKLRPMSMLYYDDGQNIIKKDIQNMIVEECGCS | in agreement | equivalent cell numbers | equivalent protein expression
ACTN48: activin A variant peptide, SEQ ID 49 (protein) GLECDGKVNLCCKKQNFVSFKDIGWNDWIIAPSGYHANECSGLCPSHIAGTSGSSLSFHSTVINHYRMRGHSPFANMGACCIPTKLRPMSMLYYDDGQNIIKKDIQNMIVEECGCS | in agreement | equivalent cell numbers | equivalent protein expression
